From paper PMC4288360 come the findings set out here.

This test deals with T1, Recombinant mouse BMP-9 (bone morphogenetic protein 9) (mouse) (UniProt Q9WV56).
T1 sequence: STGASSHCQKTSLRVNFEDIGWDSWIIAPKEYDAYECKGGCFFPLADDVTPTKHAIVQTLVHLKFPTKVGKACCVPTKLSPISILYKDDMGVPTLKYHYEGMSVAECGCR

B1: Activin receptor-like kinase-1 fusion protein (ALK1-Fc) (Fc fusion)
chain: DLAKPSKLVNCTCESPHCKRPFCQGSWCTVVLVREQGRHPQVYRGCGSLNQELCLGRPTEFLNHHCCYRSFCNHNVSLMLEATQTPSEEPEVDAHLP
Turning to B1, the inhibition of BMP-9 (50 ng/ml)-induced alkaline phosphatase activity in murine VSMCs by ALK1-Fc (250 ng/ml and 1 μg/ml; value at 1 μg/ml), 4 days; blocks BMP-9 acting on ALK1 of the cells was 33%.
